How the values were obtained:
[1] = target: Jak2 (UniProt O60674); assay: phosphorylation enrichment, bacterial display (enrichment ratio); higher = better substrate or ligand; peptides without Tyr show the background
[2] = tested on: c-Src; assay: as above
[3] = target: Hck (UniProt P08631); assay: as above
[4] = target: FGFR3 (UniProt P22607); assay: as above
[5] = target: EPHB2 (UniProt P29323); assay: as above
[6] = target: MERTK (UniProt Q12866); assay: as above
[7] = target: EPHB1 (UniProt P54762); assay: as above
EPHB1, sequence (P54762 whole entry, looked up): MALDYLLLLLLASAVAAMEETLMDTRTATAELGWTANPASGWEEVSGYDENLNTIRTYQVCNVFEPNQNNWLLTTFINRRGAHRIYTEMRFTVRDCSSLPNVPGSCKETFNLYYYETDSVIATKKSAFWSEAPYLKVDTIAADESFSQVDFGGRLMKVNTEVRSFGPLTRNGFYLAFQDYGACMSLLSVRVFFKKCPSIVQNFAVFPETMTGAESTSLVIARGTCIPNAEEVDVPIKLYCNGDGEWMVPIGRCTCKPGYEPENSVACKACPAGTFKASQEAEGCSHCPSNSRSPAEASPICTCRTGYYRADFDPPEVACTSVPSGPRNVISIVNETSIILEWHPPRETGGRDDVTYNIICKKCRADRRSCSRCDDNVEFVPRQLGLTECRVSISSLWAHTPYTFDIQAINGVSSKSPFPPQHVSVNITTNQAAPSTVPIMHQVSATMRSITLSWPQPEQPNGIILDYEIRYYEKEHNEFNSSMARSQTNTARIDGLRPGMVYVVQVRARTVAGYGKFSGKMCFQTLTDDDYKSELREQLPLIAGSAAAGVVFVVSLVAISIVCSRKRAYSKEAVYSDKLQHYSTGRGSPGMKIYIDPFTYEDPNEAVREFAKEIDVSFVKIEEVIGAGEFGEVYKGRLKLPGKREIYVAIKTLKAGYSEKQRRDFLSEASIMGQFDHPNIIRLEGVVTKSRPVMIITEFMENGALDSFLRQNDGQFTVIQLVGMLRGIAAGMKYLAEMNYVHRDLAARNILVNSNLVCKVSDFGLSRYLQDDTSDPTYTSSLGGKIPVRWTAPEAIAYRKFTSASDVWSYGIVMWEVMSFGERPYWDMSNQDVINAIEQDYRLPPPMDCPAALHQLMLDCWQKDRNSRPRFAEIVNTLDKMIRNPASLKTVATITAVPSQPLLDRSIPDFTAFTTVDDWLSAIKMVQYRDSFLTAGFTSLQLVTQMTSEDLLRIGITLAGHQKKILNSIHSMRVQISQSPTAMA

[8] = target: FGFR1 (UniProt P11362); assay: as above
FGFR1, sequence (P11362 whole entry, looked up): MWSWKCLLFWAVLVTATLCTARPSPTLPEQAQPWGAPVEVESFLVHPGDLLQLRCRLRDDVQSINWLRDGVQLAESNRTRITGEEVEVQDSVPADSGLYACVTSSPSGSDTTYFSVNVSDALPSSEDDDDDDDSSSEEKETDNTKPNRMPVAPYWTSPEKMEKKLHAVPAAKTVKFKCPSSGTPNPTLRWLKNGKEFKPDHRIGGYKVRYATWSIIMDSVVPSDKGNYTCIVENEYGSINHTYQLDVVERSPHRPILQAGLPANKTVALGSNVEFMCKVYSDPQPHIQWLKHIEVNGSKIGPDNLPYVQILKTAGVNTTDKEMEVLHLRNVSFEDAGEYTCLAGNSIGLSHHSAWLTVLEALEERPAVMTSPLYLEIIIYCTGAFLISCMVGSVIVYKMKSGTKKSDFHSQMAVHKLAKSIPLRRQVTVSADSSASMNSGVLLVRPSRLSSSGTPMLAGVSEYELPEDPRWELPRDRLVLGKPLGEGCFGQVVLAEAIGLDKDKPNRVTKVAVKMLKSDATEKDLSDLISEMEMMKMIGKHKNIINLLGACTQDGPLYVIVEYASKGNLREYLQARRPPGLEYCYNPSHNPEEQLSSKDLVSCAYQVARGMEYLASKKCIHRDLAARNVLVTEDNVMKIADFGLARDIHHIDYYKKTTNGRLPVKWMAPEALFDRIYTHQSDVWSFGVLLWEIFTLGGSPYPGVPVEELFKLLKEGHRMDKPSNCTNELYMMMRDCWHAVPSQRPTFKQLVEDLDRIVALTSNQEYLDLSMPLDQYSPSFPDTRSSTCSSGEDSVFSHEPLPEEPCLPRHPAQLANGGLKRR

[9] = tested on: Fer (mouse); assay: as above
[10] = target: Fyn (UniProt P06241); assay: as above
[11] = tested on: AncSZ; assay: as above
[12] = tested on: c-Abl (mouse); assay: as above
[13] = target: Fes (UniProt P07332); assay: as above
Fes, sequence (P07332 whole entry, looked up): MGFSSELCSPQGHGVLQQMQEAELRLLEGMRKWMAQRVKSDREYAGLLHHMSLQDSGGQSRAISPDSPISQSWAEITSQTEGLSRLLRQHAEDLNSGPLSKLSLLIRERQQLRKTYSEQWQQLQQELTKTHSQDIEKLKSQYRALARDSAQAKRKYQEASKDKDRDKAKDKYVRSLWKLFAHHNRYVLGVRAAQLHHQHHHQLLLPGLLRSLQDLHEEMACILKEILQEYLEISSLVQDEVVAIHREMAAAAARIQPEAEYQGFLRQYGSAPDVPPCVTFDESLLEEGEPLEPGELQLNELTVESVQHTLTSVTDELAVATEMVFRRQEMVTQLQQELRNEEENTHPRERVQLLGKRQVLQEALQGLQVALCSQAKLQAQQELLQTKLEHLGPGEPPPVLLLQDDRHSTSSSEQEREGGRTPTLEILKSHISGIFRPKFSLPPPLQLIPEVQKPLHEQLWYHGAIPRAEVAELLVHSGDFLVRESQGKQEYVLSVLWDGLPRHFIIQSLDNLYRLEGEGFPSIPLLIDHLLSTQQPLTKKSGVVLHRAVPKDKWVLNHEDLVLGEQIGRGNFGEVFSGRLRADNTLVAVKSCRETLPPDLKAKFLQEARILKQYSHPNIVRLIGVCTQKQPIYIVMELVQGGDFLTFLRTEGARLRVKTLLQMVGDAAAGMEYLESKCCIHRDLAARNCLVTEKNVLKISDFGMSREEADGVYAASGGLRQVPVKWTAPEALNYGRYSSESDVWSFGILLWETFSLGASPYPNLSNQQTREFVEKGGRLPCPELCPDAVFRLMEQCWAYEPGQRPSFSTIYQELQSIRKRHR

[14] = target: SHP2-C SH2; assay: SH2 binding enrichment of the phosphorylated peptide, bacterial display (enrichment ratio); higher = better substrate or ligand; peptides without Tyr show the background
[15] = target: Grb2 SH2 (UniProt P62993); assay: as above
Grb2 SH2, sequence (P62993 whole entry, looked up): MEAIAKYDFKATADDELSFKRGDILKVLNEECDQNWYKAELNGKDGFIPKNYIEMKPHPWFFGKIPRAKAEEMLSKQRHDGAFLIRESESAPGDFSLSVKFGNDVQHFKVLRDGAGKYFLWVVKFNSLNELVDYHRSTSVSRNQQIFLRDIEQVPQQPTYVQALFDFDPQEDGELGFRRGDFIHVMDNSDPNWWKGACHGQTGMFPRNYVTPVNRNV

[16] = target: c-Src SH2; assay: as above
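For SH2 binding enrichment of the phosphorylated peptide, bacterial display in this document: peptide library displayed on the E. coli surface as eCPX fusions, selected cells deep-sequenced, score is each peptide's frequency after selection divided by its frequency in the input.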
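For phosphorylation enrichment, bacterial display in this document: 11-residue human phosphosite peptides and single-mutation variants displayed on the E. coli surface, counted by deep sequencing, each peptide's frequency after selection divided by its frequency in the unselected input library; frequency after pTyr selection over input frequency; kinase dosed for 20-30% of maximal phosphorylation in three min.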

EPHB2, sequence (P29323 whole entry, looked up): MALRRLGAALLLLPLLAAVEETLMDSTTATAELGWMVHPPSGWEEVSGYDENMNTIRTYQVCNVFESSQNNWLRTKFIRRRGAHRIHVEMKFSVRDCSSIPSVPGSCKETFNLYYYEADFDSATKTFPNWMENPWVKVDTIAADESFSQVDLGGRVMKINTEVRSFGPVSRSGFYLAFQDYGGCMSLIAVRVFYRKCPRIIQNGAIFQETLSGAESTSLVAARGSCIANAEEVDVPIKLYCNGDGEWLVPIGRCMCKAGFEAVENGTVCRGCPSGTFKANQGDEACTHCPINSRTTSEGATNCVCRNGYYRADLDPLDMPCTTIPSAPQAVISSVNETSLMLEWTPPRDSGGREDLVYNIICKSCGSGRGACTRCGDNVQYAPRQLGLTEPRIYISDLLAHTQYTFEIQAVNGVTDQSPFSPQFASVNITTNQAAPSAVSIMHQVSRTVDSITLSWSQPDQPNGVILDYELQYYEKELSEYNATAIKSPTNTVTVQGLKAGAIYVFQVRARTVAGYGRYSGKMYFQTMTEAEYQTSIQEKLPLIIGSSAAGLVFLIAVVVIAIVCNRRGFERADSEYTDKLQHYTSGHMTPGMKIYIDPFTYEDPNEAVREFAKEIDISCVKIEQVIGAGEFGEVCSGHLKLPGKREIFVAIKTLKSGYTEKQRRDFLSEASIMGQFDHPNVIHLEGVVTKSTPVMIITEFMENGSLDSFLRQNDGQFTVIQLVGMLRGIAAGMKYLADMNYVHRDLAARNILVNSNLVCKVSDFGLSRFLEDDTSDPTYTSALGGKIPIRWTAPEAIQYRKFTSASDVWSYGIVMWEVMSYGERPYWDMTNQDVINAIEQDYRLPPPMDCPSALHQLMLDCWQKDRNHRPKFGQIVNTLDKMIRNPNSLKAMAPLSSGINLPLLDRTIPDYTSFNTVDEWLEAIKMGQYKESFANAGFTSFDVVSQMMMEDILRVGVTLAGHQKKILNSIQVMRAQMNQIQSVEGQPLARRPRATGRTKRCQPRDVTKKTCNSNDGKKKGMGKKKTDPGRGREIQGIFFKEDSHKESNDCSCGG
Jak2, sequence (O60674 whole entry, looked up): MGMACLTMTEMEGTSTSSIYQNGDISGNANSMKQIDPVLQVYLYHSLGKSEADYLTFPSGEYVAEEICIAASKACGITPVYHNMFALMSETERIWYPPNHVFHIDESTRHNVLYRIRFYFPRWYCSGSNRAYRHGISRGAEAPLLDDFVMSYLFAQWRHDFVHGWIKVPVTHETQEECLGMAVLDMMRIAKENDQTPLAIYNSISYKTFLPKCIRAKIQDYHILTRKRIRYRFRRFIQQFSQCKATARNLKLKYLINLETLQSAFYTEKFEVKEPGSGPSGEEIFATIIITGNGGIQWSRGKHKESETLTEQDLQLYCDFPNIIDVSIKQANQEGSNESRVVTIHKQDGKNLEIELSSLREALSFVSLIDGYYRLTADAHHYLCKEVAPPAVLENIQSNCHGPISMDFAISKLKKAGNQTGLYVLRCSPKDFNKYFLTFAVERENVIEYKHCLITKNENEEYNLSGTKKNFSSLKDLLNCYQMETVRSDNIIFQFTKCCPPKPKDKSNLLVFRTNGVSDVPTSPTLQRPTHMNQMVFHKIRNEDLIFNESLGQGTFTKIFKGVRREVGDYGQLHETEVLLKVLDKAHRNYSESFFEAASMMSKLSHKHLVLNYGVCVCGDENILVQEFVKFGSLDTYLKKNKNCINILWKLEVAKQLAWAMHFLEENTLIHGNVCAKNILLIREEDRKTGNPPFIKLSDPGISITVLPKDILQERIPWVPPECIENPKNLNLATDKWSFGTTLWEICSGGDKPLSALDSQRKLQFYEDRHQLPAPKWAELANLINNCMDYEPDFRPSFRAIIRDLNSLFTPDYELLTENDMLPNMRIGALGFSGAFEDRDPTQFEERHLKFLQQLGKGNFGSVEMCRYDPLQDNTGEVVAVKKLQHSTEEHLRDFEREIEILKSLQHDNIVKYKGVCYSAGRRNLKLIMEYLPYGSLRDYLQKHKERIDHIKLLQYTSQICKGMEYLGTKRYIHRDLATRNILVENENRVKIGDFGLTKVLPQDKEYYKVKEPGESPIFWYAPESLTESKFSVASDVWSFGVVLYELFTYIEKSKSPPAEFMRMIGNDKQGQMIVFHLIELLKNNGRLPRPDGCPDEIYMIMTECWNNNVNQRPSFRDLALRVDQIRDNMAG

Row | Sequence | phosphorylation enrichment [1] | phosphorylation enrichment [2] | phosphorylation enrichment [3] | phosphorylation enrichment [4] | phosphorylation enrichment [5] | phosphorylation enrichment [6] | phosphorylation enrichment [7] | phosphorylation enrichment [8] | phosphorylation enrichment [9] | phosphorylation enrichment [10] | phosphorylation enrichment [11] | phosphorylation enrichment [12] | phosphorylation enrichment [13] | SH2 binding enrichment [14] | SH2 binding enrichment [15] | SH2 binding enrichment [16]
1 | REGDKYVSHGA [ASS1_Y113_A111D] | 0.83 | 0.643 | 0.61 | 0.58 | 0.622 | 0.744 | 0.794 | 0.731 | 0.486 | 0.505 | 0.938 | 0.873 | 1.03 | 1.01 | 0.623 | 0.407
2 | EQLRAYLEGEC [HLA-C_Y183_T187E] | 1.14 | 0.465 | 0.533 | 0.949 | 0.623 | 0.51 | 0.775 | 0.514 | 0.537 | 0.548 | 1.3 | 1.15 | 1.25 | 0.664 | 0.783 | 0.502
3 | FSPGSYERETF [NF1_Y2192] | 0.763 | 0.539 | 0.447 | 0.535 | 0.548 | 0.429 | 0.526 | 0.483 | 0.427 | 0.429 | 0.883 | 0.702 | 0.856 | 0.612 | 0.776 | 0.495
4 | LGLDEYLDKLK [FMNL2_Y352] | 1.71 | 0.375 | 0.587 | 0.971 | 0.816 | 0.569 | 0.716 | 0.536 | 0.933 | 0.394 | 1.47 | 0.982 | 1.27 | 0.662 | 0.78 | 0.588
5 | PELIDYGKLRK [ACTN1_Y193] | 0.368 | 0.404 | 0.446 | 0.544 | 0.668 | 0.62 | 0.441 | 0.714 | 0.465 | 0.587 | 0.86 | 0.537 | 0.8 | 0.6 | 0.581 | 0.478
6 | PYTDPYYDYEI [ZC3H18_Y371_A368T] | 1.88 | 6.46 | 2.43 | 14.7 | 3.3 | 3.26 | 2.99 | 18.9 | 4.55 | 4.83 | 3.74 | 1.59 | 1.97 | 0.591 | 1.13 | 2.66
7 | LWKWKYEELKE [CCDC102B_Y299] | 1.09 | 0.27 | 0.513 | 1.24 | 0.493 | 0.336 | 0.92 | 0.573 | 0.712 | 0.631 | 1.28 | 0.725 | 1.73 | 0.808 | 1.43 | 0.81
8 | QQLVAYFSKHT [SRC_Y232_A237T_YF] | 1.75 | 0.513 | 0.699 | 0.942 | 0.724 | 0.382 | 0.676 | 0.562 | 0.595 | 0.629 | 0.898 | 0.646 | 1.09 | 1.08 | 1.01 | 0.808
9 | SGETKYNPTEA [NBEAL2_Y2748_E2747K] | 0.848 | 0.537 | 0.613 | 0.594 | 0.476 | 0.449 | 0.558 | 0.502 | 0.539 | 0.459 | 0.767 | 0.624 | 0.868 | 0.533 | 0.791 | 0.579
10 | SVTCTYSPALT [TP53_Y126_N131T] | 1.6 | 0.741 | 0.694 | 0.908 | 0.615 | 0.432 | 0.872 | 0.524 | 0.706 | 0.446 | 1.75 | 1.2 | 1.76 | 0.474 | 0.666 | 0.436
11 | LGQRIYQYIQS [DYRK1B_Y271] | 1.3 | 5.08 | 8.12 | 3.3 | 12.5 | 13.5 | 20.9 | 5.29 | 18.1 | 4.18 | 1.54 | 2.74 | 2.86 | 1.2 | 1.02 | 4.11
12 | NGRTGYVLQPE [PLCG2_Y1036] | 0.566 | 0.416 | 0.474 | 0.431 | 0.384 | 0.399 | 0.435 | 0.383 | 0.466 | 0.448 | 0.588 | 0.494 | 0.757 | 0.644 | 0.793 | 0.496
13 | QGCGIYKDFFR [PLA2G2D_Y82_S80G_YF] | 1.17 | 6.23 | 3.89 | 0.885 | 0.852 | 0.534 | 0.548 | 0.7 | 0.76 | 5.88 | 1.08 | 1.26 | 1.49 | 1.38 | 1.03 | 0.753
14 | QGQHWYSSSDT [CASP10_Y9_K14T] | 1.99 | 0.982 | 0.573 | 0.901 | 0.929 | 0.811 | 0.859 | 0.657 | 0.755 | 0.672 | 1.09 | 1.06 | 1.39 | 0.83 | 0.827 | 1.53
15 | MKTISYETLIA [DOCK10_Y1350] | 0.927 | 0.379 | 0.501 | 0.622 | 0.474 | 0.384 | 0.53 | 0.472 | 0.497 | 0.431 | 0.847 | 0.526 | 0.926 | 0.792 | 0.747 | 1.97
16 | TCRPPYYHRNC [HGD_Y333_F329C] | 0.162 | 0.251 | 0.218 | 0.493 | – | 0.235 | – | 0.398 | 0.233 | 0.093 | 0.243 | 0.197 | 0.713 | 3.31 | 1.76 | 1.01
